Measurements: PMC8881611, “A mechanism of origin licensing control through autoinhibition of S. cerevisiae ORC·DNA·Cdc6” (Nature Communications, 2022)

Assays:
[1] = biological target: T1, ScORC·DNA·Cdc6 with MBP-tagged ORC holding Orc6 ΔCBN (Orc6Δ1-120), ORC untreated (S. cerevisiae, UniProt P54784 1-914; P32833 1-620; P54790 1-616; P54791 1-529; P50874 1-479; P38826 …); assay: pull-down; amylose pulldown, ORC with MBP-tagged Orc4 as bait; 0.5 uM ScORC, 0.5 uM 84 bp ARS1 dsDNA, 1 uM ScCdc6, 10 uM ScMcm7 (titrations 1.5, 5, 10 uM), 2 mM ATPγS; 25 mM HEPES pH 7.5, 300 mM potassium acetate, 10 mM magnesium acetate, 1 mM DTT; on ice; maltose elution, Coomassie-stained SDS-PAGE; settings: both partners purified
T1 construct: Orc1, S. cerevisiae, wild type; Orc2, S. cerevisiae, wild type; Orc3, S. cerevisiae, wild type; Orc4, S. cerevisiae, wild type; Orc5, S. cerevisiae, wild type; Orc6, S. cerevisiae, truncation Orc6Δ1-120 (lacks the N-terminal cyclin box fold); Cdc6, S. cerevisiae, wild type; The unstructured linker region of Orc6ΔCBN is prone to proteolytic cleavage during expression and purification; also called …

[2] = biological target: T2, ScORC·DNA·Cdc6 with MBP-tagged ORC holding Orc6 ΔCBN (Orc6Δ1-120), ORC phosphorylated by CDK (S. cerevisiae, UniProt P54784 1-914; P32833 1-620; P54790 1-616; P54791 1-529; P50874 1-479; P38826 …, ORC treated with CDK; phosphorylated sites not printed | ORC treated with CDK; phosphorylated sites not given); assay: as above; settings: both partners purified
T2 construct: Orc1, S. cerevisiae, wild type; Orc2, S. cerevisiae, wild type; Orc3, S. cerevisiae, wild type; Orc4, S. cerevisiae, wild type; Orc5, S. cerevisiae, wild type; Orc6, S. cerevisiae, truncation Orc6Δ1-120 (lacks the N-terminal cyclin box fold); Cdc6, S. cerevisiae, wild type; ORC phosphorylated by CDK before assembly with DNA, Cdc6 and ATPγS; also called Orc6 ΔCBN, CDK; Orc6^ΔN120; source: MBP-ORC: …

binding result [1]: binds
binding result [2]: binds
B1: S. cerevisiae Mcm7 (ScMcm7) (natural protein, UniProt P38132 1-845, looked up)
chain: MSAALPSIQLPVDYNNLFNEITDFLVTFKQDTLSSDATRNENEDENLDAENIEQHLLEKGPKYMAMLQKVANRELNSVIIDLDDILQYQNEKFLQGTQADDLVSAIQQNANHFTELFCRAIDNNMPLPTKEIDYKDDVLDVILNQRRLRNERMLSDRTNEIRSENLMDTTMDPPSSMNDALREVVEDETELFPPNLTRRYFLYFKPLSQNCARRYRKKAISSKPLSVRQIKGDFLGQLITVRGIITRVSDVKPAVEVIAYTCDQCGYEVFQEVNSRTFTPLSECTSEECSQNQTKGQLFMSTRASKFSAFQECKIQELSQQVPVGHIPRSLNIHVNGTLVRSLSPGDIVDVTGIFLPAPYTGFKALKAGLLTETYLEAQFVRQHKKKFASFSLTSDVEERVMELITSGDVYNRLAKSIAPEIYGNLDVKKALLLLLVGGVDKRVGDGMKIRGDINVCLMGDPGVAKSQLLKAICKISPRGVYTTGKGSSGVGLTAAVMKDPVTDEMILEGGALVLADNGICCIDEFDKMDESDRTAIHEVMEQQTISISKAGINTTLNARTSILAAANPLYGRYNPRLSPLDNINLPAALLSRFDILFLMLDIPSRDDDEKLAEHVTYVHMHNKQPDLDFTPVEPSKMREYIAYAKTKRPVMSEAVNDYVVQAYIRLRQDSKREMDSKFSFGQATPRTLLGIIRLSQALAKLRLADMVDIDDVEEALRLVRVSKESLYQETNKSKEDESPTTKIFTIIKKMLQETGKNTLSYENIVKTVRLRGFTMLQLSNCIQEYSYLNVWHLINEGNTLKFVDDGTMDTDQEDSLVSTPKLAPQTTASANVSAQDSDIDLQDA
notes: Mcm7, S. cerevisiae; migrates as a doublet on SDS-PAGE; source: E. coli BL21 RIL, purified (HisTrap, amylose, TEV cleavage, HisTrap, gel filtration); not shown: His6, N-terminal, cleaved; MBP, N-terminal, cleaved
